“Also recorded” adds a separate entry of the source.
Assays:
[1] = system: prostate tissue of SD rats; test: CP/CPPS animal model by immunization with antigen plus CFA; HE staining and pathological score of prostate; type: in vivo, rat
Text: (§1) Experiment is designed and performed as follows. Firstly, pure TRPM8 protein is combined with Complete Freund's adjuvant (CFA) to establish an animal model of CP/CPPS. The animal model is compared with a prostatein homogenate modeling method. Meanwhile, TRPM8 in prostatein homogenate is removed by immunomagnetic beads; wherein the prostatein homogenate is molded for serving as a negative control. HE staining method is utilized to evaluate the severity of inflammation in prostate tissue of each modeling group of animal, and the severity of inflammation in prostate tissue is performed with pathological score. CD3 immunofluorescence method is adopted to observe infiltrating of T lymphocyte in prostate of the modeling animal.
Take 40 8-week-old SPF level male SD rats, with weights at a range of 250±20 g. The rats are purchased from Shanghai Sijie laboratory Co., Ltd with a license number of SCXK (Shanghai) 2012-0006. Under an aseptic condition, prostate of an SD rats is taken to prepare prostatein homogenate and TRPM8 removed homogenate protein. Grouping of immune animals in experiments is as follows. 40 8-week-old SD rats are randomly classified into 4 groups, i.e., a homogenate protein group, a TRPM8 removed homogenate protein group, a pure TRPM8 protein group and a control group; wherein each group comprises 10 rats. After 8 weeks of immune, each group of the rats are injected with 10% chloral hydrate on abdomen for anesthesia, and plasma and prostate of each group of rats are respectively collected. Preparation of prostate pathological section: the paraffin embedded prostate sections of the rats in each experimental group are sent to a drying oven, heated under 60° C. for 30 min. […]
According to HE staining result, prostatitis degree of each group of rats are pathologically scored under standards as follows. […]
Each prostate section is scored by three associate professors in pathology according to the standards mentioned above under a randomized and double-blind principle, and an average value calculated is a histological score indicating degree of the prostatitis of the animal. […]

[2] = system: T lymphocyte in prostate of the modeling animal; test: CD3 immunofluorescence staining of prostate tissue; type: in vivo, rat; details: SD rats immunized with antigen combined with CFA
Text: as §1
In addition, the prostate tissue sections of each group of animals to be tested are taken, baked in an oven for 30 minutes at 60° C., then subjected to CD3 immunofluorescence, and finally added with anti-fluorescence quenching agent for sealing, observed under a microscope, wherein photos are taken.
In order to improve the inflammatory cell containing a plurality of T-lymphocytes, the CD3 molecules are performed with immunofluorescence staining. The results are shown in FIG. 3: A: control blank group; B: protein homogenate group; C: pure TRPM8 protein group; D: TRPM8 protein free homogenate group.

B1: TRPM8 protein: TRPM8 protein purchased from ProteinTech Group; combined with CFA to immunize SD rats (protein)
chain: MSFRAARLSMRNRRNDTLDSTRTLYSSASRSTDLSYSESDLVNFIQANFKKRECVFFTKDSKATENVCKCGYAQSQHMEGTQINQSEKWNYKKHTKEFPTDAFGDIQFETLGKKGKYIRLSCDTDAEILYELLTQHWHLKTPNLVISVTGGAKNFALKPRMRKIFSRLIYIAQSKGAWILTGGTHYGLMKYIGEVVRDNTISRSSEENIVAIGIAAWGMVSNRDTLIRNCDAEGYFLAQYLMDDFTRDPLYILDNNHTHLLLVDNGCHGHPTVEAKLRNQLEKYISERTIQDSNYGGKIPIVCFAQGGGKETLKAINTSIKNKIPCVVVEGSGQIADVIASLVEVEDALTSSAVKEKLVRFLPRTVSRLPEEETESWIKWLKEILECSHLLTVIKMEEAGDEIVSNAISYALYKAFSTSEQDKDNWNGQLKLLLEWNQLDLANDEIFTNDRRWESADLQEVMFTALIKDRPKFVRLFLENGLNLRKFLTHDVLTELFSNHFSTLVYRNLQIAKNSYNDALLTFVWKLVANFRRGFRKEDRNGRDEMDIELHDVSPITRHPLQALFIWAILQNKKELSKVIWEQTRGCTLAALGASKLLKTLAKVKNDINAAGESEELANEYETRAVELFTECYSSDEDLAEQLLVYSCEAWGGSNCLELAVEATDQHFIAQPGVQNFLSKQWYGEISRDTKNWKIILCLFIIPLVGCGFVSFRKKPVDKHKKLLWYYVAFFTSPFVVFSWNVVFYIAFLLLFAYVLLMDFHSVPHPPELVLYSLVFVLFCDEVRQWYVNGVNYFTDLWNVMDTLGLFYFIAGIVFRLHSSNKSSLYSGRVIFCLDYIIFTLRLIHIFTVSRNLGPKIIMLQRMLIDVFFFLFLFAVWMVAFGVARQGILRQNEQRWRWIFRSVIYEPYLAMFGQVPSDVDGTTYDFAHCTFTGNESKPLCVELDEHNLPRFPEWITIPLVCIYMLSTNILLVNLLVAMFGYTVGTVQENNDQVWKFQRYFLVQEYCSRLNIPFPFIVFAYFYMVVKKCFKCCCKEKNMESSVCCFKNEDNETLAWEGVMKENYLVKINTKANDTSEEMRHRFRQLDTKLNDLKGLLKEIANKIK
With B1 the “pathogenicity causing CP/CPPS” value ([1]; SD rats immunized with antigen) was “successfully induces generation of CP/CPPS; also recorded: strong pathogenicity causing CP/CPPS”, the “inflammatory cell infiltration in prostate (HE staining)” value ([1]; SD rats immunized with antigen combined with CFA, 8 weeks) was “a plurality of inflammatory cell infiltration” and the “histological score (pathological evaluation of prostatitis degree)” value ([1]; SD rats immunized with antigen combined with CFA, 8 weeks, score 0-3, M±SD) was 2.7000±0.4830. For the same molecule, the “CD3 immunofluorescence staining of prostate stromal” value [2] was “A large area of CD3 molecule marked by red luminescence”.

From US11175289B2, “Application of TRPM8 protein, related peptide fragment and their antibodies” (priority 2016, dated 2021)
